Results as given in US20050130151, “Method and identification of downstream mrna ligands to fmrp and their role in fragile x syndrome and associated disorders” (Emory University, published 2005).
Changes are numbered by the printed parent chain. Numbers in names are those of the source.

What was measured:
[1] = biological target: FMRP I304N (KH2 mutant, full length) (Homo sapiens, UniProt Q06787-9 Q06787-9:3-605, I304N); test: filter; nearly as well as wild-type FMRP
FMRP (full length, iso7) [2] = biological target: T1, FMRP (full length, iso7) (Homo sapiens, UniProt Q06787-9 Q06787-9:3-605); test: EMSA; 100 nM FMRP; supershifted by anti-FMRP mAb
[3] = biological target: T2, FMRP C-terminus (distal to KH domains, contains RGG box) (Homo sapiens, UniProt Q06787-9 Q06787-9:402-605); test: filter; all sc1 binding activity in C-terminal domain; settings: tags: N-terminal T7, C-terminal His (pET21b); label: 32P-UTP; stem-loop with intramolecular G4
FMRP N-terminus = FMRP N-terminus (Homo sapiens, UniProt Q06787-9 Q06787-9:3-218); test: as above; settings: tags: N-terminal T7, C-terminal His (pET21b); label: 32P-UTP; stem-loop with intramolecular G4
FMRP (full length, iso7) [4] = biological target: T1, FMRP (full length, iso7); test: filter; no binding detected
FMRP (full length, iso7) [5] = biological target: T1, FMRP (full length, iso7); test: filter; 5-6 nt stem sufficient for high affinity; boundaries mapped by alkaline hydrolysis/filter capture
FMRP (full length, iso7) [6] = biological target: T1, FMRP (full length, iso7); test: filter; severe decrease, undetectable
FMRP (full length, iso7) [7] = biological target: T1, FMRP (full length, iso7); test: filter; no effect versus sc1
FMRP (full length, iso7) [8] = biological target: T1, FMRP (full length, iso7); test: filter; minimal effect
[9] = biological target: T2, FMRP C-terminus (distal to KH domains, …); test: filter; K+; abrogated in Li+; settings: tags: N-terminal T7, C-terminal His (pET21b); label: 32P-UTP; G4
Experimental: To assess whether the RNAs listed in Table 1 bound FMRP in a G-quartet dependent manner, binding in the presence of Li⁺ versus K⁺ was assessed, and mutants in which the Hoogsteen paired Gs were changed to Cs were generated.

FMRP (full length, iso7) [10] = biological target: T1, FMRP (full length, iso7); test: filter; antisense control in K+

B1: sc1 (ssRNA)
RNA: GAGCGGCUGCGGUGUGGAAGGAGUGGCUGGGUUGCGCACCUUGGCUUC
binding result [1]: binds
binding result (FMRP (full length, iso7) [2]): binds
binding result [3]: binds
binding result (FMRP N-terminus): no binding

B2: sc1 conserved element only (ssRNA)
RNA: GUGGAAGGAGUGGCUGGG
binding result (FMRP (full length, iso7) [4]): no binding

B3: sc1 truncated with 5-6 nt stem (boundaries nt 23-57) (ssRNA)
RNA: GCUGCGGUGUGGAAGGAGUGGCUGGGUUGCGCACC
binding result (FMRP (full length, iso7) [5]): binds

B4: sc1 A35A36 to CC (ssRNA)
RNA: B1 RNA with A18C, A19C
modifications: [none]
binding result (FMRP (full length, iso7) [6]): no binding

B5: sc1 C44G (ssRNA)
RNA: B1 RNA with C27G
modifications: [none]
binding result (FMRP (full length, iso7) [7]): binds

B6: sc1 G38A (ssRNA)
RNA: B1 RNA with G21A
modifications: [none]
binding signal (FMRP (full length, iso7) [8]): < 20 fold decrease

B7: sc1 U49U50 to AA (ssRNA)
RNA: B1 RNA with U32A, U33A
modifications: [none]
binding signal (FMRP (full length, iso7) [8]): < 20 fold decrease

B8: Guanine nucleotide exchange factor (KIAA0763) 3'UTR site (ssRNA)
RNA: GGGGAGGCAGGAGGAGGCCGAGG
binding result [9]: binds

B9: Sec7-related GEF antisense transcript (ssRNA)
RNA: CCUCGGCCUCCUCCUGCCUCCCC
binding result (FMRP (full length, iso7) [10]): no binding
